Reference: paper PMC12375970, “Probing the extent of importin‐α targeting of the TAF8 NLS by eliminating its cationic net‐charge” (Protein Science : A Publication of the Protein Society, 2025)
Read-outs that look alike come from different tables or passages of the source. One block for each substance: values may come before it.

Assays:
[1] = molecular target: importin-alpha (Homo sapiens) (UniProt P52292); experiment: ITC; details: cited from earlier work
[2] = molecular target: mouse importin‐α paralog 2 (mImpα2) lacking the importin‐β‐binding (IBB) domain, residues 70–529 (mouse) (UniProt P52293); experiment: MST; Monolith NT.115; RED‐NHS‐labelled mImpα2 at 60 nM titrated against NLS peptide 250 μM–7.6 nM; 20 mM Tris–HCl, 127 mM NaCl, pH 8.0, 0.5% Tween‐20; one‐binding site and two‐binding site model fits; apparent
[3] = molecular target: murine importin-α isoform 2 (mImpα2) lacking the importin-β-binding (IBB) domain (mouse) (UniProt P52293); experiment: MST; Monolith NT.115; RED-NHS-labelled mImpα2 at 60 nM titrated against a serial 1:1 dilution (250 µM-7.6 nM) of NLS peptide with 0.5% Tween-20; 20 mM Tris-HCl, 127 mM NaCl, pH 8.0; three repeats, mean ± SD; fitted with one-binding-site, two-binding-site and Hill models; apparent affinity
[4] = molecular target: importin-alpha (Homo sapiens) (UniProt P52292); details: cited from earlier work
importin-beta = importin-beta (UniProt Q14974); details: cited from earlier work
Sequence of importin-beta (Q14974 whole entry): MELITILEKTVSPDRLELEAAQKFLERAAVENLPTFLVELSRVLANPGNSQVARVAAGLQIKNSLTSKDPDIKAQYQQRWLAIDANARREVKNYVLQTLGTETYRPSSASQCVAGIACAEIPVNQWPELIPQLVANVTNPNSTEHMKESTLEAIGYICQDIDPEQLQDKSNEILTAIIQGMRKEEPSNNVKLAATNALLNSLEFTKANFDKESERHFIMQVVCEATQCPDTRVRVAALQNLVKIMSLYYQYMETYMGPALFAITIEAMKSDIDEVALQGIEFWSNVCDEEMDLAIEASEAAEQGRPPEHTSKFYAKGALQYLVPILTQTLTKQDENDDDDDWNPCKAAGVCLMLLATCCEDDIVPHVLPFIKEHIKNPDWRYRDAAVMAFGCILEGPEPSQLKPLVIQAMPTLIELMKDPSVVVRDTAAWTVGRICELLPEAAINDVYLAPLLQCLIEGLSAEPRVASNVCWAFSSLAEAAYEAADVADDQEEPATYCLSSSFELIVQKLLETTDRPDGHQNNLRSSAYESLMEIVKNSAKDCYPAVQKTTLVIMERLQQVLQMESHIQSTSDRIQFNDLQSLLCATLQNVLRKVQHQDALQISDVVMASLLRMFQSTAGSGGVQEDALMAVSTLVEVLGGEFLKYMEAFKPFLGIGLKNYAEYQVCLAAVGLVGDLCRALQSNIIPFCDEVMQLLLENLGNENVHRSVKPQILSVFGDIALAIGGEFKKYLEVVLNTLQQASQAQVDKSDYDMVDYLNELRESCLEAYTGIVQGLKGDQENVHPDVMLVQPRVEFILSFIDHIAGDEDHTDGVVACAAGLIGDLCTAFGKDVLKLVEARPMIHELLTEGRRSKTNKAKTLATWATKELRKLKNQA

Substance: TAF8 NLS 297-310 (from UniProt Q7Z7C8)
- Kd [1]: 10.4 µM

- KD1 (site 1, two‐binding site model) [2]: 1 µM
- KD2 (site 2, two‐binding site model) [2]: 1 µM
Substance: TAF8 NLS peptide (TAF8 residues 297–305, …)

- Kd [3]: 1.21 µM
Substance: TAF8 NLS peptide (…, residues 297-305)

Substance: importin-alpha IBB domain IBB (from UniProt P52292)
- Kd [4]: 14 µM
- Kd (importin-beta): 0.01 µM
